According to publication PMC7484162:

Molecular target: CD33 (UniProt P20138)
Chain of UniProt P20138 (P20138 18-364): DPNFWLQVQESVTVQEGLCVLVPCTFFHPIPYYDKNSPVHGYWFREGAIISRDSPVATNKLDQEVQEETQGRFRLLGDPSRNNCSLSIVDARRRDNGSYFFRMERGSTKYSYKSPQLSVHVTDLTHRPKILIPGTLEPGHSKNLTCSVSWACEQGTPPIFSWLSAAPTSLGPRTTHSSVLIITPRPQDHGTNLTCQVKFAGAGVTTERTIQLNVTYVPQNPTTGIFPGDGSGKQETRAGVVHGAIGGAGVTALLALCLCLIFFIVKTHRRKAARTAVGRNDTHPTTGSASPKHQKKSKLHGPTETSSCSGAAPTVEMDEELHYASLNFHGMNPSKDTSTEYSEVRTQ

Kd: 25.6 nM
Substance: cam16-wt15–33 TriKE (second-generation Tri-specific Killer Engager) (from UniProt P40933 49-162)
